We go through 37 molecules from patent publication US20230265198A1 (TWIST BIOSCIENCE, published 2023).

For the test, the target named is T1, neuropilin-1 (NRP1) on HEK293 cells overexpressing NRP1 (UniProt O14786 22-923, limits assumed).
T1 construct: whole, on cells
As to the kind of experiment: flow cytometry, HEK293-NRP1 vs HEK293. For orientation: A flow cytometer gives signals particle by particle.

Changes are numbered by the printed parent chain.

B1: NRP1-1 (VHH)
VHH: EVQLVESGGGLVQPGGSLRLSCAASGRTFRRYAMGWFRQAPGKEREFVASISRSGTLTRYADSVKGRFTISADNSKNTAYLQMNSLKPEDTAVYYCAAKTGAFSYGSLWWMSRAYNWGQGTLVTVSS
With B1, the “100 nM FACS (MFI Ratio)” value was 15.4.

B2: NRP1-78 (VHH)
VHH: EVQLVESGGGLVQPGGSLRLSCAASGRTFRSYPMGWFRQAPGKEREWVASITSSATAYADSVKGRFTISADNSKNTAYLQMNSLKPEDTAVYYCALGPVRRSRLEWGQGTLVTVSS
B2: the “100 nM FACS (MFI Ratio)” value was determined as 3.6.

B3: NRP1-89 (VHH)
VHH: EVQLVESGGGLVQPGGSLRLSCAASGINFSRYGMGWFRQAPGKEREWVSAISSGGGSITTYADSVKGRFTISADNSKNTAYLQMNSLKPEDTAVYYCARHNSGWHFDYWGQGTLVTVSS
Regarding B3, the “100 nM FACS (MFI Ratio)” value was 1.8.

B4: NRP1-76 (VHH)
VHH: EVQLVESGGGLVQPGGSLRLSCAASGITFRRYAMGWFRQAPGKEREIVATIWWTFDAPYYADSVKGRFTISADNSKNTAYLQMNSLKPEDTAVYYCAAYQAGWGDWGQGTLVTVSS
As for B4, the “100 nM FACS (MFI Ratio)” value came out at 3.1.

B5: NRP1-61 (VHH)
VHH: B4 VHH with I27R, R30S, I47W, T50G, W52S, F55G, D56G, A57I, P58T, A101R
On to B5, for which the “100 nM FACS (MFI Ratio)” value is 0.9.

B6: NRP1-2 (VHH)
VHH: B4 VHH with I27G, R30T, R31K, Y32Q, A33T, I47F
In the case of B6, the “100 nM FACS (MFI Ratio)” value amounted to 15.7.

B7: NRP1-72 (VHH)
VHH: B4 VHH with I27R, I47F, W52S, T54S, F55G, D56A, A57L, P58T, Y59H, A101R
For the molecule B7, the “100 nM FACS (MFI Ratio)” value worked out at 3.

B8: NRP1-74 (VHH)
VHH: B4 VHH with I27S, F29L, R31D, A33T, I47F
For B8, the “100 nM FACS (MFI Ratio)” value came to 5.8.

B9: NRP1-83 (VHH)
VHH: B4 VHH with I27S, T28I, F29G, R31E, Y32V, I47L
As for B9, the “100 nM FACS (MFI Ratio)” value stood at 6.9.

B10: NRP1-90 (VHH)
VHH: EVQLVESGGGLVQPGGSLRLSCAASGGIFSINDMGWFRQAPGKEREFVARITSGGSTNYADSVKGRFTISADNSKNTAYLQMNSLKPEDTAVYYCAKADYYDSSDFDSWGQGTLVTVSS
In the case of B10, the “100 nM FACS (MFI Ratio)” value stood at 1.

B11: NRP1-85 (VHH)
VHH: EVQLVESGGGLVQPGGSLRLSCAASGSRFSGRFNILNMGWFRQAPGKERESVAAINWSGGTSTYYADSVKGRFTISADNSKNTAYLQMNSLKPEDTAVYYCAAGSNIGGSRWRYDWGQGTLVTVSS
Turning to B11, the “100 nM FACS (MFI Ratio)” value worked out at 5.

B12: NRP1-17 (VHH)
VHH: EVQLVESGGGLVQPGGSLRLSCAASGRFSRINSMGWFRQAPGKERELVAAIMWSGGSTKYADSVKGRFTISADNSKNTAYLQMNSLKPEDTAVYYCAAGSPSRLVNMWQYNWGQGTLVTVSS
With B12, the “100 nM FACS (MFI Ratio)” value came out at 1960.

B13: NRP1-41 (VHH)
VHH: B12 VHH with L47S, M52S, S54N, T58I, K59Y
For B13, the “100 nM FACS (MFI Ratio)” value amounted to 6.1.

B14: NRP1-91 (VHH)
VHH: EVQLVESGGGLVQPGGSLRLSCAASGNIFINNAMGWFRQAPGKERELVAAITSSSGRRWYADSVKGRFTISADNSKNTAYLQMNSLKPEDTAVYYCAAGSPSRLVNMWQYNWGQGTLVTVSS
With B14, the “100 nM FACS (MFI Ratio)” value came out at 2.7.

B15: NRP1-87 (VHH)
VHH: EVQLVESGGGLVQPGGSLRLSCAASGRIFTMGWFRQAPGKEREFVASITTDGNTLYADSVKGRFTISADNSKNTAYLQMNSLKPEDTAVYYCARWVGASAYHYGMDVWGQGTLVTVSS
Take B15: the “100 nM FACS (MFI Ratio)” value amounted to 3.7.

B16: NRP1-88 (VHH)
VHH: EVQLVESGGGLVQPGGSLRLSCAASGGIFSRYDMGWFRQAPGKEREFVATITSTGDTYADSVKGRFTISADNSKNTAYLQMNSLKPEDTAVYYCARLGGNSEYYYYYGMDVWGQGTLVTVSS
As to B16, the “100 nM FACS (MFI Ratio)” value worked out at 2.8.

B17: NRP1-79 (VHH)
VHH: EVQLVESGGGLVQPGGSLRLSCAASGRTYYAMGWFRQAPGKEREFVAAISWGGGLTVYADSVKGRFTISADNSKNTAYLQMNSLKPEDTAVYYCASSGWLTDYYYAMDVWGQGTLVTVSS
On to B17, for which the “100 nM FACS (MFI Ratio)” value was determined as 13.2.

B18: NRP1-37 (VHH)
VHH: EVQLVESGGGLVQPGGSLRLSCAASGRTFSIYAMGWFRQAPGKERELVAAISRTGGSTYYADSVKGRFTISADNSKNTAYLQMNSLKPEDTAVYYCAADRMYRPVGNQYDWGQGTLVTVSS
On to B18, for which the “100 nM FACS (MFI Ratio)” value was 8.8.

B19: NRP1-106 (VHH)
VHH: B18 VHH with D99R, M101I, Y102V, R103N, P104V, V105E, N107A, Q108Y, Y109R
In the case of B19, the “100 nM FACS (MFI Ratio)” value was 2.2.

B20: NRP1-99 (VHH)
VHH: B18 VHH with F29S, S30N, L47F, T54S, S57L, T58K, Y59S
For the molecule B20, the “100 nM FACS (MFI Ratio)” value was determined as 0.8.

B21: NRP1-75 (VHH)
VHH: B18 VHH with F29I, I31V, S52N, T54S, G56K
As to B21, the “100 nM FACS (MFI Ratio)” value is 4.2.

B22: NRP1-47 (VHH)
VHH: B18 VHH with T28S, F29S, S30R, I31Y, L47F, S52K, R53W, T54S, G56T
Consider B22, for which the “100 nM FACS (MFI Ratio)” value is 6.6.

B23: NRP1-114 (VHH)
VHH: B18 VHH with T28S, F29S, S30R, I31Y, L47F, S52R, R53W, T54S, S57T, Y59F
In the case of B23, the “100 nM FACS (MFI Ratio)” value turned out to be 8.7.

B24: NRP1-81 (VHH)
VHH: B18 VHH with T28S, F29S, S30R, I31Y, L47F, S52R, R53W, G56M, S57N, Y59H
As to B24, the “100 nM FACS (MFI Ratio)” value turned out to be 5.

B25: NRP1-86 (VHH)
VHH: EVQLVESGGGLVQPGGSLRLSCAASGNIFINNAMGWFRQAPGKERELVAAITSSSGRRWYADSVKGRFTISADNSKNTAYLQMNSLKPEDTAVYYCAADRMYRPVGNQYDWGQGTLVTVSS
For B25, the “100 nM FACS (MFI Ratio)” value was 2.4.

B26: NRP1-71 (VHH)
VHH: EVQLVESGGGLVQPGGSLRLSCAASGRTFSNAAMGWFRQAPGKERELVARITPGGNTNYADSVKGRFTISADNSKNTAYLQMNSLKPEDTAVYYCAARRIVNVEGAYRDWGQGTLVTVSS
B26: the “100 nM FACS (MFI Ratio)” value was found to be 0.4.

B27: NRP1-59 (VHH)
VHH: B26 VHH with F29I, R50S, T52S, P53R, G54F, N56R
For B27, the “100 nM FACS (MFI Ratio)” value stood at 0.4.

B28: NRP1-51 (VHH)
VHH: B26 VHH with R27F, T28A, A32Y, A33H
Take B28: the “100 nM FACS (MFI Ratio)” value is 0.8.

B29: NRP1-46 (VHH)
VHH: B26 VHH with R27F, S30R, A32F, A33G, L47I, T52S, G54S, N58Y
For B29, the “100 nM FACS (MFI Ratio)” value worked out at 2.2.

B30: NRP1-77 (VHH)
VHH: B26 VHH with T28I, S30I, A32N, T52S, G54A, N56S, N58Y
As for B30, the “100 nM FACS (MFI Ratio)” value came to 4.9.

B31: NRP1-65 (VHH)
VHH: B26 VHH with F29I, L47W, R50A, P53S, N56Y, N58H
As to B31, the “100 nM FACS (MFI Ratio)” value was 0.7.

B32: NRP1-100 (VHH)
VHH: B26 VHH with T28S, F29V, N31T, A32Y, A33G, R50S, T52S, P53R, G54F, N56R
With B32, the “100 nM FACS (MFI Ratio)” value was 0.6.

B33: NRP1-48 (VHH)
VHH: B26 VHH with R27F, S30R, A32F, A33G, P53G, N56S, N58A
As for B33, the “100 nM FACS (MFI Ratio)” value turned out to be 0.7.

B34: NRP1-92 (VHH)
VHH: EVQLVESGGGLVQPGGSLRLSCAASGLLFSSYDMGWFRQAPGKEREFVAAITSGGRKNYADSVKGRFTISADNSKNTAYLQMNSLKPEDTAVYYCARYDYSGGLTFDYWGQGTLVTVSS
B34: the “100 nM FACS (MFI Ratio)” value was 6.

B35: NRP1-96 (VHH)
VHH: EVQLVESGGGLVQPGGSLRLSCAASGLTYTMSWFRQAPGKEREFVAGFSGSGSVTSYADSVKGRFTISADNSKNTAYLQMNSLKPEDTAVYYCAAFDGYSGSDWGQGTLVTVSS
For B35, the “100 nM FACS (MFI Ratio)” value came out at 1.4.

B36: NRP1-7 (VHH)
VHH: EVQLVESGGGLVQPGGSLRLSCAASGRIFIIYAMGWFRQAPGKERELVAAITRTGGRPCYADSVKGRFTISADNSKNTAYLQMNSLKPEDTAVYYCAARRMLSPEGAHPDWGQGTLVTVSS
B36: the “100 nM FACS (MFI Ratio)” value is 233.

B37: NRP1-80 (VHH)
VHH: EVQLVESGGGLVQPGGSLRLSCAASGSIDRINAMGWFRQAPGKEREFVASIWWTFDAPYYADSVKGRFTISADNSKNTAYLQMNSLKPEDTAVYYCATWTTTWGRNRDWGQGTLVTVSS
With B37, the “100 nM FACS (MFI Ratio)” value amounted to 6.9.
